Measurements taken from patent US20070031849A1, “Three-dimensional structure of DNA recombination/repair protein and use thereof” (priority 2001, published 2007).

B1: R55A: point mutant of HsRad521-212, arginine at position 55 substituted with alanine (protein)
chain: MSGTEEAILGGRDSHPAAGGGSVLCFGQCQYTAEEYQAIQKALRQRLGPEYISSAMAGGGQKVCYIEGHRVINLANEMFGYNGWAHSITQQNVDFVDLNNGKFYVGVCAFVRVQLKDGSYHEDVGYGVSEGLKSKALSLEKARKEAVTDGLKRALRSFGNALGNCILDKDYLRSLNKLPRQLPLEVDLTKAKRQDLEPSVEEARYNSCRPNMALGHPQLQQVTSPSRPSHAVIPADQDCSSRSLSSSAVESEATHQRKLRQKQLQQQFRERMEKQQVRVSTPSAEKSEAAPPAPPVTHSTPVTVSEPLLEKDFLAGVTQELIKTLEDNSEKWAVTPDAGDGVVKPSSRADPAQTSDTLALNNQMVTQNRTPHSVCHQKPQAKSGSWDLQTYSADQRTTGNWESHRKSQDMKKRKYDPS
B2: R70A: point mutant of HsRad521-212, arginine at position 70 substituted with alanine (protein)
chain: MSGTEEAILGGRDSHPAAGGGSVLCFGQCQYTAEEYQAIQKALRQRLGPEYISSRMAGGGQKVCYIEGHAVINLANEMFGYNGWAHSITQQNVDFVDLNNGKFYVGVCAFVRVQLKDGSYHEDVGYGVSEGLKSKALSLEKARKEAVTDGLKRALRSFGNALGNCILDKDYLRSLNKLPRQLPLEVDLTKAKRQDLEPSVEEARYNSCRPNMALGHPQLQQVTSPSRPSHAVIPADQDCSSRSLSSSAVESEATHQRKLRQKQLQQQFRERMEKQQVRVSTPSAEKSEAAPPAPPVTHSTPVTVSEPLLEKDFLAGVTQELIKTLEDNSEKWAVTPDAGDGVVKPSSRADPAQTSDTLALNNQMVTQNRTPHSVCHQKPQAKSGSWDLQTYSADQRTTGNWESHRKSQDMKKRKYDPS
B3: Y65A: point mutant of HsRad521-212, tyrosine at position 65 substituted with alanine (protein)
chain: MSGTEEAILGGRDSHPAAGGGSVLCFGQCQYTAEEYQAIQKALRQRLGPEYISSRMAGGGQKVCAIEGHRVINLANEMFGYNGWAHSITQQNVDFVDLNNGKFYVGVCAFVRVQLKDGSYHEDVGYGVSEGLKSKALSLEKARKEAVTDGLKRALRSFGNALGNCILDKDYLRSLNKLPRQLPLEVDLTKAKRQDLEPSVEEARYNSCRPNMALGHPQLQQVTSPSRPSHAVIPADQDCSSRSLSSSAVESEATHQRKLRQKQLQQQFRERMEKQQVRVSTPSAEKSEAAPPAPPVTHSTPVTVSEPLLEKDFLAGVTQELIKTLEDNSEKWAVTPDAGDGVVKPSSRADPAQTSDTLALNNQMVTQNRTPHSVCHQKPQAKSGSWDLQTYSADQRTTGNWESHRKSQDMKKRKYDPS
B4: H69A: point mutant of HsRad521-212, histidine at position 69 substituted with alanine (protein)
chain: MSGTEEAILGGRDSHPAAGGGSVLCFGQCQYTAEEYQAIQKALRQRLGPEYISSRMAGGGQKVCYIEGARVINLANEMFGYNGWAHSITQQNVDFVDLNNGKFYVGVCAFVRVQLKDGSYHEDVGYGVSEGLKSKALSLEKARKEAVTDGLKRALRSFGNALGNCILDKDYLRSLNKLPRQLPLEVDLTKAKRQDLEPSVEEARYNSCRPNMALGHPQLQQVTSPSRPSHAVIPADQDCSSRSLSSSAVESEATHQRKLRQKQLQQQFRERMEKQQVRVSTPSAEKSEAAPPAPPVTHSTPVTVSEPLLEKDFLAGVTQELIKTLEDNSEKWAVTPDAGDGVVKPSSRADPAQTSDTLALNNQMVTQNRTPHSVCHQKPQAKSGSWDLQTYSADQRTTGNWESHRKSQDMKKRKYDPS

The molecules below were run on SAT-1 single-stranded DNA (assay: Gel shift assay: single-stranded DNA binding of HsRad521-212 point mutants). Conditions: 0.25 to 2 μM mutant; compared with wild type HsRad521-212.
Procedure: The single-stranded and double-stranded DNAs binding activities of the six types of point mutants thus prepared from HsRad521-212 were detected by gel shift assay method. The substrate DNA used by the method was prepared as described below. The pGsat4 of double-stranded DNA was prepared by inserting a 198-bp DNA fragment from human α-satellite into a plasmid PGEM-T East vector (manufactured by Promega). The 3.2-kb plasmid DNA was prepared by a gentle lysis method using sarcosyl, without alkali modification of the host E. coli, so as to avoid the irreversible denaturation. As the single-stranded DNA, a 50-base oligonucleotide purified by HPLC as shown in SEQ ID NO:2 was purchased from Roche Biochemical.
The 5′ terminus of the oligonucleotide was labeled with radioactivity in the presence of [γ^32P] ATP using T4 polynucleotide kinase (New England Biolabs) and then purified on a column Chromaspin-10 (manufactured by Clontech).
For gel shift assay, a reaction mixtures containing final concentratins of 50 mM Hepes-KOH (pH 7.5), 40 mM KCl, 1 mM MgCl2, 0.1 mg/ml BSA, 1 mM DTT, 2% glycerol and 0.25 to 2 μM mutants of HsRad521-212 was used. For single-stranded DNA binding assay, 1 μl of 1 μM ^32P-labeled SAT-1 single-stranded DNA (nucleotide) was mixed with 9 μl of the reaction mixture, which was incubated at 37° C. for 5 minutes. Subsequently, 1 μl of 12% […] solution was added, to immobilize HsRad52 and the single-stranded DNA. After incubating for 20 minutes, a 6-fold volume of staining solution for electrophoresis was added. The reaction mixture was resolved by 1% agarose gel electrophoresis in 0.5×TBE buffer at 3.3 V/cm and ambient temperature. After electrophoresis, the gel was dried for detection by autoradiography. The amount of the free single-stranded DNA was assayed by an image analyzer BAS2500 manufactured by Fuji Film. […] Compared with the wild type HsRad521-212, the single-stranded DNA binding activity of all of the point mutants was lowered.
B1 was tested, and the “Single-stranded DNA binding activity” value was “lost most of the binding activity to the single-stranded DNA”. For B2, the “Single-stranded DNA binding activity” value was “lost most of the binding activity to the single-stranded DNA”. B3 was tested, and the “Single-stranded DNA binding activity” value was “lost most of the binding activity to the single-stranded DNA”. B4 was tested, and the “Single-stranded DNA binding activity” value was “lost most of the binding activity to the single-stranded DNA”.

These molecules were tested against T1, HsRad52(1-212) wild type (Homo sapiens, UniProt P43351 SEQ:1-212) (assay: EMSA; 50 mM Hepes-KOH pH 7.5, 40 mM KCl, 1 mM MgCl2, 37 C, glutaraldehyde fixed; 0.25-2 uM protein; complex formation inhibited by Compound A). Conditions: tags: His6 removed by thrombin; chain copies: 11 (undecameric ring, stated); label: 5'-32P.
T1 sequence: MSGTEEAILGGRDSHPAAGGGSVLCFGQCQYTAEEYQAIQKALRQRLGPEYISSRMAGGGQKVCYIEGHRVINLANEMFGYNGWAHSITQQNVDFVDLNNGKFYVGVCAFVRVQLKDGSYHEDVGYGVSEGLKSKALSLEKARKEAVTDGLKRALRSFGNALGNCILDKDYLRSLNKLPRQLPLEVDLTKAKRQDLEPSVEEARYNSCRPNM
Procedure: For gel shift assay, a reaction mixtures containing final concentratins of 50 mM Hepes-KOH (pH 7.5), 40 mM KCl, 1 mM MgCl₂, 0.1 mg/ml BSA, 1 mM DTT, 2% glycerol and 0.25 to 2 μM mutants of HsRad52₁₋₂₁₂ was used. For single-stranded DNA binding assay, 1 μl of 1 μM ³²P-labeled SAT-1 single-stranded DNA (nucleotide) was mixed with 9 μl of the reaction mixture, which was incubated at 37° C. for 5 minutes. Subsequently, 1 μl of 12% glyceraldehyde solution was added, to immobilize HsRad52 and the single-stranded DNA. After incubating for 20 minutes, a 6-fold volume of staining solution for electrophoresis was added. The reaction mixture was resolved by 1% agarose gel electrophoresis in 0.5×TBE buffer at 3.3 V/cm and ambient temperature. After electrophoresis, the gel was dried for detection by autoradiography. The amount of the free single-stranded DNA was assayed by an image analyzer BAS2500 manufactured by Fuji Film.
Subsequently, the mixture was fixed with 0.2% glutaraldehyde for 20 minutes and electrophoresed on 1% agarose gel.
ATTTCATGCTAGACAGAAGAATTCTCAGTAACTTCTTTGTGCTGTGTGTA (ssDNA) [SAT-1 50-mer]: binds.

Each molecule was assayed against T2, HsRad52 protein (HsRad521-212) (Homo sapiens, UniProt P43351) (assay: Screening for HsRad52-binding compounds by one-dimensional 1H-NMR). Conditions: calculated from signal intensity of the NMR spectrum; binding force of Compound A defined as 1.
T2 construct: hexahistidine (N, cleaved yes); made in house; host or cells: E. coli JM109 (DE3), pET15-b
T2 sequence (P43351 1-212): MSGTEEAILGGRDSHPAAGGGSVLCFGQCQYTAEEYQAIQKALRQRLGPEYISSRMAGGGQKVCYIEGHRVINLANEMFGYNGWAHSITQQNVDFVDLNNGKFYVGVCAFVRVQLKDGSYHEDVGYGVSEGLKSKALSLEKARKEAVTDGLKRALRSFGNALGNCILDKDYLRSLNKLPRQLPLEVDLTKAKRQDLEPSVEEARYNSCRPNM
Procedure: Among the ligand candidate compounds obtained in Example 8, one candidate compound was in view of the binding free energy change (ΔG) obtained by AutoDock and solubility. The compound was dissolved in DMSO-d6 to be adjusted to 455.7 μM. The HsRad521-212 protein prepared in Example 3 was dissolved to 152 μM using buffer solution A (dissolved in heavy water to 10 mM Tris-dll, pH 7.5)/200 mM KCl). Using them, two types of samples namely the ligand candidate compound alone and the ligand candidate compound to which the HsRad52 protein was added at 1:1 were prepared.
The final concentration of the ligand candidate compound is 21.7 μM.
The final concentrations of the ligand candidate compound and the HsRad52 protein are 21.7 μM, respectively.
One-dimensional ^1H-NMR of the individual samples was measured, to observe whether or not any change existed between prior to and after the addition of HsRad52 protein. Consequently, the NMR spectrum of a sample of ID AK968-41170131 with a chemical name of cis-6-[4-(4-isobutyl-phenyl)-5-methyl-thiazol-2-ylcarbamoyl]-3,4-dimethyl-cyclohex-3-enec arboxylic acid (Compound A, −11.71 kcal/mol) as such ligand candidate compound is shown in FIGS. 5 through 7. […] In FIG. 6, a slight increase of the base line due to the mixing with the protein can be observed, but apparently, Compound A-derived two signals around 7.5 ppm disappeared.
Herein, all the NMR spectra were taken in deuterium, using Bruker DRX500 NMR spectrophotometer at 298 K.
Using such method, the plural ligand candidate compounds obtained in Example 8 were adjusted to various concentrations to measure the NMR spectra. Compounds detected with the interaction with HsRad52 are shown below in Table 4. Herein, the strength of a binding force relatively calculated from the signal intensity of the NMR spectrum is shown as relative binding force, provided that the binding force of the Compound A is defined as 1.
With CCCCc1ccc(-c2nc(NC(=O)C3C4CCC(O4)C3C(=O)O)sc2C)cc1 (stereo not drawn) [C, 3-[4-(4-Butyl-phenyl)-5-methyl-thiazol-2-ylcarbamoyl]-7-oxa-bicyclo[2.2.1]heptane-2-carboxylic acid] the “Relative Binding force” value was 0.5. For CC1=C(C)CC(C(=O)Nc2nc(-c3ccc(C(C)C)cc3)c(C)s2)C(C(=O)O)C1 (stereo not drawn) [Compound B, 6-[4-(4-Isopropyl-phenyl)-5-methyl-thiazol-2-ylcarbamoyl]-3,4-dimethyl-cyclohex-3-enecarboxylic acid], the “Relative Binding force” value was 0.5. In the case of CC1=C(C)CC(C(=O)Nc2nc(-c3ccc(C)cc3C)c(C)s2)C(C(=O)O)C1 (stereo not drawn) [D, 6-[4-(2,4-Dimethyl-phenyl)-5-methyl-thiazol-2-ylcarbamoyl]-3,4-dimethyl-cyclohex-3-enecarboxylic acid], the “Relative Binding force” value is reported as 0.2. In the case of CCCc1ccc(-c2nc(NC(=O)C3CC(C)=C(C)CC3C(=O)O)sc2C)cc1 (stereo not drawn) [E, 3,4-Dimethyl-6-[5-methyl-4-(4-propyl-phenyl)-thiazol-2-ylcarbamoyl]-cyclohex-3-enecarboxylic acid], the “Relative Binding force” value is reported as 0.5.
